The source of these data is patent US20060172958.

For this data set, the target named is recombinant His-tagged PLS3 protein (pQE vector) (UniProt Q9NRY6).
Chain of recombinant His-tagged PLS3 protein (pQE vector) (Q9NRY6 whole entry): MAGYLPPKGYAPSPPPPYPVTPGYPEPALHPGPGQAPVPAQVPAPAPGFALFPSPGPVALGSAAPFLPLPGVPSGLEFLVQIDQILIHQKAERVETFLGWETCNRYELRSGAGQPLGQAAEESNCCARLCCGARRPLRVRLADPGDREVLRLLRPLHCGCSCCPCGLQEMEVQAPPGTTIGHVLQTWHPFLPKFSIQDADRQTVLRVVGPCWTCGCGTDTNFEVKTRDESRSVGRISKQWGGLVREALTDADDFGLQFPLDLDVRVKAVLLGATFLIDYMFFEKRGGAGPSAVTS

recombinant PKC-δ enzyme (Calbiochem): the in vitro phosphorylation entry is “The PLS3 protein was a high-affinity substrate for PKC-δ and the phosphorylation steadily increased over the first 25 minutes”; the km entry is given as “it was determined that the km is 10.5 nM”.
